# Reference: patent publication US10441663B2, “Methods for treating cancer” (Bicycle Therapeutics Limited, priority 2016, dated 2019)
# “Also recorded” adds a separate entry of the source. *1 amine or outer side, *2 acyl side, *3 side chain or, on linkers, in order; H or OH if unused. Where a SMILES comes first, the peptide text is derived from it. Bridges are numbered along the chain shown (N, C = ends). [ ]: non-standard residue; d: D form. The star is where a group is joined. X1 = COc1cc2cc(c1Cl)N(C)C(=O)C[C@H](OC(=O)[C@H](C)N(C)C(=O)CCSSC(C)CCC(=O)*)[C@]1(C)O[C@H]1[C@H](C)[C@@H]1C[C@@](O)(NC(=O)O1)[C@H](OC)/C=C/C=C(\C)C2; 1Nal = N[C@@H](Cc1cccc2ccccc12)C(=O)O; TBMB = c1c(C[*:1])cc(C[*:3])cc1C[*:2]; Tle = CC(C)(C)[C@H](N)C(=O)O; βAla = NCCC(=O)O; Sar = CNCC(=O)O
# System: EBC-1 xenograft
# Test: Efficacy of BT1718 in EBC-1 xenograft model (Example 1)
# Format: in vivo, Mus Musculus
# Conditions: for Tumor Size (mm^3): Mean ± SEM
# Description: The objective of this study was to evaluate the anti-tumor efficacy of BT1718 in EBC-1 xenograft model in female BALB/c nude mice.
# The EBC-1 tumor cells were maintained in vitro as a monolayer culture in EMEM medium supplemented with 10% heat inactivated fetal bovine serum at 37° C. in an atmosphere of 5% CO2 in air. The tumor cells will be routinely subcultured twice weekly by trypsin-EDTA treatment. The cells growing in an exponential growth phase will be harvested and counted for tumor inoculation.
# Each mouse was inoculated subcutaneously at the right flank with EBC-1 tumor cells (10×10^6) in 0.2 ml of PBS for tumor development. The animals were randomized and treatment was started when the average tumor volume reaches approximately 165 mm^3 for the efficacy study.
# All the procedures related to animal handling, care and the treatment in the study were performed according to the guidelines of the Association for Assessment and Accreditation of Laboratory Animal Care (AAALAC). At the time of routine monitoring, the animals were daily checked for any effects of tumor growth and treatments on normal behavior such as mobility, food and water consumption (by looking only), body weight gain/loss (body weights were measured every day), eye/hair matting and any other abnormal effect as stated in the protocol. Death and observed clinical signs were recorded on the basis of the numbers of animals within each subset.
# The major endpoint was to see if the tumor growth could be delayed or mice could be cured. Tumor size was measured three times weekly in two dimensions using a caliper, and the volume was expressed in mm^3 using the formula: V=0.5 a×b^2 where a and b are the long and short diameters of the tumor, respectively. The tumor size was then used for calculations of T/C value. The T/C value (in percent) is an indication of antitumor effectiveness; T and C are the mean volumes of the treated and control groups, respectively, on a given day.
# TGI was calculated for each group using the formula: TGI (%)=[1−(Ti−T0)/(Vi−V0)]×100; Ti is the average tumor volume of a treatment group on a given day, T0 is the average tumor volume of the treatment group on the day of treatment start, Vi is the average tumor volume of the vehicle control group on the same day with Ti, and V0 is the average tumor volume of the vehicle group on the day of treatment start.
# Summary statistics, including mean and the standard error of the mean (SEM), are provided for the tumor volume of each group at each time point.
# Statistical analysis of difference in tumor volume among the groups was conducted on the data obtained at the best therapeutic time point after the final dose.
# A one-way ANOVA was performed to compare tumor volume among groups, and when a significant F-statistics (a ratio of treatment variance to the error variance) was obtained, comparisons between groups were carried out with Games-Howell test. All data were analyzed using Prism. P<0.05 was considered to be statistically significant.
smiles,measurement,setting,value
COc1cc2cc(c1Cl)N(C)C(=O)C[C@H](OC(=O)[C@H](C)N(C)C(=O)CCSSC(C)CCC(=O)NCCC(=O)N(C)CC(=O)N(C)CC(=O)N(C)CC(=O)N(C)CC(=O)N(C)CC(=O)N(C)CC(=O)N(C)CC(=O)N(C)CC(=O)N(C)CC(=O)N(C)CC(=O)N[C@@H](C)C(=O)N[C@H]1CSCc3cc4cc(c3)CSC[C@H](NC(=O)[C@@H](C)NC(=O)[C@H](Cc3cccc5ccccc35)NC(=O)[C@H](CCC(=O)O)NC(=O)[C@H](CC(N)=O)NC(=O)[C@@H](C)NC1=O)C(=O)N[C@@H](CCC(=O)O)C(=O)N[C@@H](CC(=O)O)C(=O)N[C@@H](Cc1ccccc1)C(=O)N[C@@H](Cc1ccc(O)cc1)C(=O)N[C@@H](CC(=O)O)C(=O)N[C@@H](C(C)(C)C)C(=O)N[C@H](C(N)=O)CSC4)[C@]1(C)O[C@H]1[C@H](C)[C@@H]1C[C@@](O)(NC(=O)O1)[C@H](OC)/C=C/C=C(\C)C2 (some centres unmarked) [BT1718] ({X1-βAla}-[Sar][Sar][Sar][Sar][Sar][Sar][Sar][Sar][Sar][Sar]AC[dA]NE[1Nal][dA]CEDFYD[Tle]C-NH2; linker 12-18-25 via TBMB (inferred)),tumor growth,"3 mg/kg, twice weekly for two weeks",significant reduction in tumor growth
same,post-treatment monitoring,9 mg/kg qw group and 4.5 mg/kg biw group,re-growth after dosing cessation
same,tumor response,10 mg/kg tiw,complete tumor clearance
same,tumor response,"10 mg/kg, twice weekly for two weeks",complete regressions
same,body weight effect,30 mg/kg qw,marked body weight loss; also recorded: severe body weight loss
same,tumor response,"30 mg/kg qw, 15 mg/kg biw, 10 mg/kg tiw and 4.3 mg/kg qd, by day 14",completely regressed the tumor
same,Body Weight,"1.3 mpk qd, day 0",25.1 ± 0.3 g
same,Body Weight (% Change),"1.3 mpk qd, day 0",0.0%
same,Tumor Volume,"1.3 mpk qd, day 0",161 ± 22 mm^3
same,Body Weight,"1.3 mpk qd, day 2",24.6 ± 0.6 g
same,Body Weight (% Change),"1.3 mpk qd, day 2",−2.0 ± 2.6%
same,Tumor Volume,"1.3 mpk qd, day 2",204 ± 30 mm^3
same,Body Weight,"1.3 mpk qd, day 4",24.9 ± 0.5 g
same,Body Weight (% Change),"1.3 mpk qd, day 4",−0.8 ± 1.7%
same,Tumor Volume,"1.3 mpk qd, day 4",243 ± 36 mm^3
same,Body Weight,"1.3 mpk qd, day 7",24.2 ± 0.5 g
same,Body Weight (% Change),"1.3 mpk qd, day 7",−3.5 ± 1.3%
same,Tumor Volume,"1.3 mpk qd, day 7",278 ± 35 mm^3
same,Body Weight,"1.3 mpk qd, day 9",24.5 ± 0.5 g
same,Body Weight (% Change),"1.3 mpk qd, day 9",−2.2 ± 2.0%
same,Tumor Volume,"1.3 mpk qd, day 9",326 ± 46 mm^3
same,Body Weight,"1.3 mpk qd, day 11",25.4 ± 0.4 g
same,Body Weight (% Change),"1.3 mpk qd, day 11",1.3 ± 1.4%
same,Tumor Volume,"1.3 mpk qd, day 11",370 ± 40 mm^3
same,Body Weight,"1.3 mpk qd, day 14",25.2 ± 0.8 g
same,Body Weight (% Change),"1.3 mpk qd, day 14",0.5 ± 3.2%
same,T/C (%),"1.3 mpk qd, day 14",38%
same,TGI (%),"1.3 mpk qd, day 14",71%
same,Tumor Volume,"1.3 mpk qd, day 14",473 ± 44 mm^3
same,Tumor Size (mm^3),"1.3 mpk qd, day 14",473 ± 44 mm^3
same,Body Weight,"3 mpk tiw, day 0",24.0 ± 0.2 g
same,Body Weight (% Change),"3 mpk tiw, day 0",0.0%
same,Tumor Volume,"3 mpk tiw, day 0",165 ± 13 mm^3
same,Body Weight,"3 mpk tiw, day 2",23.8 ± 0.3 g
same,Body Weight (% Change),"3 mpk tiw, day 2",−1.0 ± 0.9%
same,Tumor Volume,"3 mpk tiw, day 2",251 ± 18 mm^3
same,Body Weight,"3 mpk tiw, day 4",24.1 ± 0.3 g
same,Body Weight (% Change),"3 mpk tiw, day 4",0.3 ± 0.7%
same,Tumor Volume,"3 mpk tiw, day 4",381 ± 26 mm^3
same,Body Weight,"3 mpk tiw, day 7",24.5 ± 0.2 g
same,Body Weight (% Change),"3 mpk tiw, day 7",2.0 ± 0.2%
same,Tumor Volume,"3 mpk tiw, day 7",501 ± 41 mm^3
same,Body Weight,"3 mpk tiw, day 9",24.7 ± 0.2 g
same,Body Weight (% Change),"3 mpk tiw, day 9",2.8 ± 0.6%
same,Tumor Volume,"3 mpk tiw, day 9",525 ± 40 mm^3
same,Body Weight,"3 mpk tiw, day 11",24.7 ± 0.2 g
same,Body Weight (% Change),"3 mpk tiw, day 11",3.1 ± 1.0%
same,Tumor Volume,"3 mpk tiw, day 11",540 ± 46 mm^3
same,Body Weight,"3 mpk tiw, day 14",25.1 ± 0.2 g
same,Body Weight (% Change),"3 mpk tiw, day 14",4.6 ± 1.5%
same,T/C (%),"3 mpk tiw, day 14",52%
same,TGI (%),"3 mpk tiw, day 14",56%
same,Tumor Volume,"3 mpk tiw, day 14",644 ± 56 mm^3
same,Tumor Size (mm^3),"3 mpk tiw, day 14",644 ± 56 mm^3
same,Body Weight,"4.3 mpk qd, day 0",24.8 ± 0.4 g
same,Body Weight (% Change),"4.3 mpk qd, day 0",0.0%
same,Tumor Volume,"4.3 mpk qd, day 0",165 ± 18 mm^3
same,Body Weight,"4.3 mpk qd, day 2",23.9 ± 0.5 g
same,Body Weight (% Change),"4.3 mpk qd, day 2",−3.4 ± 1.1%
same,Tumor Volume,"4.3 mpk qd, day 2",209 ± 7 mm^3
same,Body Weight,"4.3 mpk qd, day 4",23.6 ± 0.8 g
same,Body Weight (% Change),"4.3 mpk qd, day 4",−4.6 ± 2.0%
same,Tumor Volume,"4.3 mpk qd, day 4",154 ± 10 mm^3
same,Body Weight,"4.3 mpk qd, day 7",23.7 ± 0.5 g
same,Body Weight (% Change),"4.3 mpk qd, day 7",−4.2 ± 1.3%
same,Tumor Volume,"4.3 mpk qd, day 7",81 ± 3 mm^3
same,Body Weight,"4.3 mpk qd, day 9",23.5 ± 0.5 g
same,Body Weight (% Change),"4.3 mpk qd, day 9",−5.2 ± 1.2%
same,Tumor Volume,"4.3 mpk qd, day 9",39 ± 3 mm^3
same,Body Weight,"4.3 mpk qd, day 11",24.7 ± 0.7 g
same,Body Weight (% Change),"4.3 mpk qd, day 11",−0.4 ± 1.7%
same,Tumor Volume,"4.3 mpk qd, day 11",6 ± 3 mm^3
same,Body Weight,"4.3 mpk qd, day 14",23.5 ± 0.6 g
same,Body Weight (% Change),"4.3 mpk qd, day 14",−5.1 ± 1.9%
same,T/C (%),"4.3 mpk qd, day 14",0%
same,TGI (%),"4.3 mpk qd, day 14",115%
same,Tumor Volume,"4.3 mpk qd, day 14",0 ± 0 mm^3
same,Tumor Size (mm^3),"4.3 mpk qd, day 14",0 ± 0 mm^3
same,Body Weight,"4.5 mpk biw, day 0",24.0 ± 0.6 g
same,Body Weight (% Change),"4.5 mpk biw, day 0",0.0%
same,Tumor Volume,"4.5 mpk biw, day 0",161 ± 21 mm^3
same,Body Weight,"4.5 mpk biw, day 2",23.4 ± 0.6 g
same,Body Weight (% Change),"4.5 mpk biw, day 2",−2.2 ± 1.0%
same,Tumor Volume,"4.5 mpk biw, day 2",239 ± 15 mm^3
same,Body Weight,"4.5 mpk biw, day 4",23.7 ± 0.6 g
same,Body Weight (% Change),"4.5 mpk biw, day 4",−1.3 ± 0.7%
same,Tumor Volume,"4.5 mpk biw, day 4",276 ± 28 mm^3
same,Body Weight,"4.5 mpk biw, day 7",24.8 ± 0.7 g
same,Body Weight (% Change),"4.5 mpk biw, day 7",3.3 ± 0.9%
same,Tumor Volume,"4.5 mpk biw, day 7",296 ± 29 mm^3
same,Body Weight,"4.5 mpk biw, day 9",24.2 ± 0.6 g
same,Body Weight (% Change),"4.5 mpk biw, day 9",1.0 ± 0.7%
same,Tumor Volume,"4.5 mpk biw, day 9",285 ± 19 mm^3
same,Body Weight,"4.5 mpk biw, day 11",24.5 ± 0.7 g
same,Body Weight (% Change),"4.5 mpk biw, day 11",2.4 ± 1.1%
same,Tumor Volume,"4.5 mpk biw, day 11",254 ± 46 mm^3
same,Body Weight,"4.5 mpk biw, day 14",25.1 ± 0.6 g
same,Body Weight (% Change),"4.5 mpk biw, day 14",5.0 ± 0.7%
same,T/C (%),"4.5 mpk biw, day 14",23%
same,TGI (%),"4.5 mpk biw, day 14",89%
same,Tumor Volume,"4.5 mpk biw, day 14",285 ± 49 mm^3
same,Tumor Size (mm^3),"4.5 mpk biw, day 14",285 ± 49 mm^3
same,Body Weight,"4.5 mpk biw, day 16",24.7 ± 0.8 g
same,Body Weight (% Change),"4.5 mpk biw, day 16",3.1 ± 1.5%
same,Tumor Volume,"4.5 mpk biw, day 16",331 ± 60 mm^3
same,Body Weight,"4.5 mpk biw, day 18",25.2 ± 0.8 g
same,Body Weight (% Change),"4.5 mpk biw, day 18",5.3 ± 1.6%
same,Tumor Volume,"4.5 mpk biw, day 18",409 ± 97 mm^3
same,Body Weight,"4.5 mpk biw, day 21",25.2 ± 0.7 g
same,Body Weight (% Change),"4.5 mpk biw, day 21",5.2 ± 1.4%
